Measured values as given in patent US10654893B2, “Self-assembling peptide compositions” (3-D MATRIX, LTD., priority 2014, dated 2020).

Experiments:
[1] = Vial inversion test of 0.5% RADA16 gels with CaCl2; assay type: physicochemical
Description: FIGS. 41A-41D depict the protocol used to follow peptide dissolution and to assess effects of particular anions and/or cations, and/or their concentration, on certain RADA16 (SEQ ID NO:1) compositions. As shown, peptide powder in a vial was dissolved in deionized water with vortexing and sonication. The particular peptide composition utilized in this Example was a 1% composition of RADA16 (SEQ ID NO:1) that was mixed at a 1:1 ratio with a 2× salt solution to obtain a final concentration of 0.5% RADA16 (SEQ ID NO:1) and the desired molar concentration of salt.
The protocol depicted in FIGS. 41A-41D was followed to prepare 0.5% solutions of RADA16 (SEQ ID NO:1) with different concentrations of CaCl2. Mixed solutions were allowed to sit for a relaxation period of about 24 hours. Vials were then inverted upside down so that gel properties could be assessed.

[2] = Compositions with 0.9% NaCl at pH 3.4 (combined salt and pH); assay type: physicochemical
Description: IEIK13 (SEQ ID NO:3), KLD12 (SEQ ID NO:2), and RADA16 (SEQ ID NO:1) were dissolved in salt buffer (e.g. NaCl) and kept at elevated pH level adjusted with alkali salt buffer (e.g. NaOH). The compositions had their pH levels about 2.5-4.0 and lower ionic strength than their critical points. With respect to RADA16 (SEQ ID NO:1), KLD12 (SEQ ID NO:2) and IEIK13 (SEQ ID NO:3), peptide compositions were still clear with 0.9% NaCl (i.e. ionic strength of 0.15 M) at pH 3.4 (adjusted with NaOH). Rheological properties of RADA16 (SEQ ID NO:1) with 0.9% NaCl at pH 3.4 were stiffer than those of RADA16 control (i.e. no ionic strength and pH elevation) and RADA16 (SEQ ID NO:1) with 0.9% NaCl (no pH elevation).

Substance: Arg-Ala-Asp-Ala-Arg-Ala-Asp-Ala-Arg-Ala-Asp-Ala-Arg-Ala-Asp-Ala [RADA16]
- Gel functionality on vial inversion ([1]; 0.250 M CaCl2): fully functional gel
- Gel functionality on vial inversion ([1]; 0.500 M CaCl2): semi-functional gel
- Gel functionality on vial inversion ([1]; 1M CaCl2): non-functional gel
- Appearance of composition ([2]; 0.9% NaCl (ionic strength of 0.15 M) at pH 3.4 (adjusted with NaOH)): still clear
- Stiffness versus control and versus 0.9% NaCl without pH elevation ([2]; 0.9% NaCl at pH 3.4, 2.5% (FIG. 40)): stiffer
